According to patent publication US20140086935A1 (Bayer, published 2014):
Where two headings read alike, the source gives them in different places. Each block holds one binder with its values, some of them ahead of it.

Assays:
[1] = target: T1, human TIMP-1 (human, UniProt P01033 24-207); test: cell-based or functional assay
[2] = target: T2, rat TIMP-1 (rat, UniProt P30120 24-217); test: cell-based or functional assay
[3] = target: T1, human TIMP-1; test: cell-based or functional assay; remark: listed apart in the source
[4] = target: T1, human TIMP-1; test: SPR (BIAcore), TIMP-1 coupled to chip, monovalent Fab
Description: (§1) For affinity determination, monomeric fractions of affinity and SEC purified Fab fragments or purified IgG1 molecules were used. All experiments were conducted in HBS buffer at a flow rate of 20 μl/min at 25° C. on a BIAcore™ instrument. Antigens in 100 mM sodium acetate pH 5.0 were coupled to a CM 5 sensor chip using standard EDC-NHS coupling chemistry. […] All sensograms were fitted globally using BIA evaluation software. For monovalent Fab fragments a monovalent fit (Langmuir binding) and for IgGs a bivalent fit was applied.

[5] = target: T2, rat TIMP-1; test: as above
Description: as §1

[6] = target: T1, human TIMP-1; test: as above; remark: listed apart in the source
Description: as §1

[7] = target: T1, human TIMP-1; test: cell-based or functional assay; remark: listed apart in the source
[8] = target: T1, human TIMP-1; test: cell-based or functional assay; remark: listed apart in the source
[9] = target: T1, human TIMP-1; test: cell-based or functional assay; remark: listed apart in the source
[10] = target: T1, human TIMP-1; test: SPR (BIAcore), TIMP-1 coupled to chip, monovalent Fab; remark: listed apart in the source
Description: as §1

[11] = target: T1, human TIMP-1; test: as above; remark: listed apart in the source
Description: as §1

[12] = target: T1, human TIMP-1; test: SPR (BIAcore); against the parental Fab (MS-BW-3, 13 nM; not given)
Description: as §1

[13] = target: T1, human TIMP-1; test: cell-based or functional assay; remark: listed apart in the source
[14] = target: T1, human TIMP-1; test: SPR (BIAcore), monovalent Fab
Description: as §1

[15] = target: T1, human TIMP-1; test: SPR (BIAcore); against the parental Fab (MS-BW-44-6, 0.6 nM; implied)
Description: as §1

[16] = target: T1, human TIMP-1; test: SPR (BIAcore), monovalent Fab; against parental clone MS-BW-3 (best Fab and parent named in paragraph 170)
[17] = target: T1, human TIMP-1; test: SPR (BIAcore); against the parental Fab (MS-BW-44-2, 0.5 nM; implied)
Description: as §1

[18] = target: T2, rat TIMP-1; test: cell-based or functional assay; remark: listed apart in the source
[19] = target: T2, rat TIMP-1; test: cell-based or functional assay; remark: listed apart in the source
[20] = target: T2, rat TIMP-1; test: cell-based or functional assay; remark: listed apart in the source
[21] = target: T2, rat TIMP-1; test: SPR (BIAcore), rat TIMP-1 on chip, monovalent Fab
Description: as §1

[22] = target: T2, rat TIMP-1; test: SPR (BIAcore), TIMP-1 coupled to chip, monovalent Fab; remark: listed apart in the source
[23] = target: T1, human TIMP-1; test: SPR (BIAcore), human TIMP-1 on chip, IgG1, bivalent fit (avidity)
Description: as §1

[24] = target: T2, rat TIMP-1; test: cell-based or functional assay; remark: listed apart in the source
[25] = target: T2, rat TIMP-1; test: SPR (BIAcore), rat TIMP-1 on chip, IgG1, bivalent (avidity)
Description: as §1
Affinity matured clone MS-BW-17-1 was then converted from a monovalent Fab fragment to a bivalent IgG₁. Protein was produced by stable transfection. Purified protein was subjected to quality control in BIAcore™ and rat TIMP-1/rat MMP-13 assays (FIG. 13).

T2 sequence (P30120 24-217 limits assumed): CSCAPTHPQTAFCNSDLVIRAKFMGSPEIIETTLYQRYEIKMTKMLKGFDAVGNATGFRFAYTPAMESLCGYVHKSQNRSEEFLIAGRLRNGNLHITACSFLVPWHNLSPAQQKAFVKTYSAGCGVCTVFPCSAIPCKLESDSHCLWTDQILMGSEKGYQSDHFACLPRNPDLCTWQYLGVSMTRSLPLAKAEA

B1: MS-BW-25 (Fab, V domains shown)
VH: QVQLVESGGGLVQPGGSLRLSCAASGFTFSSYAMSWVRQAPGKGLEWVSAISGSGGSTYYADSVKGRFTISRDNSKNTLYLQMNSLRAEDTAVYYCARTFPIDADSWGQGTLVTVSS
VL: DIALTQPASVSGSPGQSITISCTGTSSDVGGYNYVSWYQQHPGKAPKLMIYDVSNRPSGVSNRFSGSKSGNTASLTISGLQAEDEADYYCQSYDFINVIVFGGGTKLTVLG
notes: Fab, FLAG + Strep-tag II; not tied by name
IC50 in human protease assay [1]: 115 nM | IC50 in rat protease assay [2]: > 300 nM | IC50 in human protease assay [3]: 115 nM | Kd [4]: 25 nM | Kd [5]: 4520 nM | Kd [6]: 25 nM

B2: MS-BW-44 (Fab, V domains shown)
VH: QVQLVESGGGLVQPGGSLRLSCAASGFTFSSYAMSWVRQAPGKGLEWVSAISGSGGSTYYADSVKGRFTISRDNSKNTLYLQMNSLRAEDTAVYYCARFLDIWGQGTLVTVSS
VL: DIALTQPASVSGSPGQSITISCTGTSSDVGGYNYVSWYQQHPGKAPKLMIYDVSNRPSGVSNRFSGSKSGNTASLTISGLQAEDEADYYCQSYDFVRFMVFGGGTKLTVLG
notes: Fab: heavy chain of MS-BW-3 with light chain of MS-BW-26; not tied by name
IC50 in human protease assay [7]: 4 nM | IC50 in human protease assay (modified, 0.4 nM TIMP-1 and MMP-1) [8]: 2 nM | IC50 in human protease assay [9]: 4 nM | IC50 in human protease assay (modified, decreased amounts of TIMP-1 and MMP-1) [9]: 2 nM | Kd [4]: 2 nM | Kd [10]: 2 nM | Kd [11]: 2 nM | improvement factor (Kd) [12]: 6.5 fold

B7: MS-BW-14 (Fab, V domains shown)
VH: QVQLVQSGAEVKKPGSSVKVSCKASGGTFSSYAISWVRQAPGQGLEWMGGIIPIFGTANYAQKFQGRVTITADESTSTAYMELSSLRSEDTAVYYCARWSDQSYHYYWHPYFDVWGQGTLVTVSS
VL: DIVLTQPPSVSGAPGQRVTISCSGSSSNIGSNYVSWYQQLPGTAPKLLIYDNNQRPSGVPDRFSGSKSGTSASLAITGLQSEDEADYYCQSWDLEPYVFGGGTKLTVLG
notes: Fab, FLAG + Strep-tag II; not tied by name; also called MS-BW-14 Fab
IC50 in rat protease assay [18]: 14 nM | IC50 in rat protease assay [19]: 14 nM | IC50 (50 % reversal of the inhibition of rat MMP-13 by rat TIMP-1, fluorogenic peptide substrate assay) [20]: ~11 nM | Kd [21]: 13 nM | Kd [5]: 10 nM | Kd [22]: 10 nM

B8: MS-BW-3 IgG1 (antibody, V domains shown)
VH: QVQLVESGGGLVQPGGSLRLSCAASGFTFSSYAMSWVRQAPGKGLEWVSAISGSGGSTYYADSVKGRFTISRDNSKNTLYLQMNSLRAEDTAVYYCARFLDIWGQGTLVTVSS
VL: DIALTQPASVSGSPGQSITISCTGTSSDVGGYNYVSWYQQHPGKAPKLMIYDVSNRPSGVSNRFSGSKSGNTASLTISGLQAEDEADYYCQSYDFLRFSVFGGGTKLTVL
notes: Variable regions of Fab MS-BW-3 cloned into human IgG1 vectors; also called negative control IgG1 MS-BW-3; control antibody; copies: 2 + 2
Kd [23]: ~0.4 nM

B9: MS-BW-17-1 (Fab, V domains shown)
VH: QVQLVQSGAEVKKPGESLKISCKGSGYSFTSYWIGWVRQMPGKGLEWMGIIYPGDSDTRYSPSFQGQVTISADKSISTAYLQWSSLKASDTAMYYCARLTNYFDSIYYDHWGQGTLVTVSS
VL: DIALTQPASVSGSPGQSITISCTGTSSDVGGYNYVSWYQQHPGKAPKLMIYDVSNRPSGVSNRFSGSKSGNTASLTISGLQAEDEADYYCQAFDVAPNGKVFGGGTKLTVLG
notes: Fab from LCDR3 optimization of MS-BW-17; also called MS-BW-17-1 Fab; BW-17-1 Fab
IC50 in rat protease assay [19]: 1.6 nM | IC50 (50 % reversal of the inhibition of rat MMP-13 by rat TIMP-1, fluorogenic peptide substrate assay) [24]: ~1.3 nM | Kd [5]: 0.8 nM

B10: MS-BW-17-1 IgG1 (antibody, V domains shown)
VH: QVQLVQSGAEVKKPGESLKISCKGSGYSFTSYWIGWVRQMPGKGLEWMGIIYPGDSDTRYSPSFQGQVTISADKSISTAYLQWSSLKASDTAMYYCARLTNYFDSIYYDHWGQGTLVTVSS
VL: DIALTQPASVSGSPGQSITISCTGTSSDVGGYNYVSWYQQHPGKAPKLMIYDVSNRPSGVSNRFSGSKSGNTASLTISGLQAEDEADYYCQAFDVAPNGKVFGGGTKLTVL
notes: Fab MS-BW-17-1 converted to bivalent human IgG1
IC50 (50 % reversal of the inhibition of rat MMP-13 by rat TIMP-1, fluorogenic peptide substrate assay) [24]: ~0.9 nM | Kd [25]: 0.04 nM

Continued, values first:

IC50 in human protease assay (modified, 0.4 nM TIMP-1 and MMP-1) [8]: 0.4 nM | IC50 in human protease assay (modified, decreased TIMP-1 and MMP-1) [9]: 0.4 nM | Kd [10]: 0.5 nM | Kd [11]: 0.5 nM
B3: MS-BW-44-2 (Fab, V domains shown)
VH: QVQLVESGGGLVQPGGSLRLSCAASGFTFSSYAMSWVRQAPGKGLEWVSGISGNGVLIFYADSVKGRFTISRDNSKNTLYLQMNSLRAEDTAVYYCARFLDIWGQGTLVTVSS
VL: DIALTQPASVSGSPGQSITISCTGTSSDVGGYNYVSWYQQHPGKAPKLMIYDVSNRPSGVSNRFSGSKSGNTASLTISGLQAEDEADYYCQSYDFVRFMVFGGGTKLTVLG
notes: Fab; MS-BW-44 with a modified HCDR2 cassette

improvement factor of activity in human TIMP-1/MMP-1 assay (against parental clone MS-BW-3) [13]: 55 fold | IC50 in human protease assay (modified, decreased TIMP-1 and MMP-1) [9]: 0.2 nM | Kd [14]: 0.15 nM | Kd [11]: 0.2 nM | improvement factor (affinity) [15]: 4 fold | improvement factor of monovalent affinity [16]: 87 fold
B4: MS-BW-44-6-1 (Fab, V domains shown)
VH: QVQLVESGGGLVQPGGSLRLSCAASGFTFNSYAMSWVRQAPGKGLEWVSVISGNGSNTYYADSVKGRFTISRDNSKNTLYLQMNSLRAEDTAVYYCARFLDIWGQGTLVTVSS
VL: DIALTQPASVSGSPGQSITISCTGTSSDVGGYNYVSWYQQHPGKAPKLMIYDVSNRPSGVSNRFSGSKSGNTASLTISGLQAEDEADYYCQSYDFIRFMVFGGGTKLTVLG
notes: Fab from LCDR3 optimization of MS-BW-44-6

IC50 in human protease assay (modified, 0.4 nM TIMP-1 and MMP-1) [8]: 0.2 nM | IC50 in human protease assay (modified, decreased TIMP-1 and MMP-1) [9]: 0.2 nM | Kd [10]: 0.6 nM | Kd [11]: 0.6 nM
B5: MS-BW-44-6 (Fab, V domains shown)
VH: QVQLVESGGGLVQPGGSLRLSCAASGFTFNSYAMSWVRQAPGKGLEWVSVISGNGSNTYYADSVKGRFTISRDNSKNTLYLQMNSLRAEDTAVYYCARFLDIWGQGTLVTVSS
VL: DIALTQPASVSGSPGQSITISCTGTSSDVGGYNYVSWYQQHPGKAPKLMIYDVSNRPSGVSNRFSGSKSGNTASLTISGLQAEDEADYYCQSYDFVRFMVFGGGTKLTVLG
notes: Fab; MS-BW-44 with modified HCDR1 and HCDR2 cassettes

improvement factor with respect to the IC50 in human TIMP-1/MMP-1 assay (against the Fab of the previous maturation cycle, MS-BW-44-2) [13]: 2 fold | IC50 in human protease assay (modified, decreased TIMP-1 and MMP-1) [9]: 0.2 nM | Kd [11]: 0.2 nM | improvement factor (affinity) [17]: 2.5 fold
B6: MS-BW-44-2-4 (Fab, V domains shown)
VH: QVQLVESGGGLVQPGGSLRLSCAASGFTFSSYAMSWVRQAPGKGLEWVSGISGNGVLIFYADSVKGRFTISRDNSKNTLYLQMNSLRAEDTAVYYCARGLMDYWGQGTLVTVSS
VL: DIALTQPASVSGSPGQSITISCTGTSSDVGGYNYVSWYQQHPGKAPKLMIYDVSNRPSGVSNRFSGSKSGNTASLTISGLQAEDEADYYCQSYDFVRFMVFGGGTKLTVLG
notes: Fab from HCDR3 optimization of MS-BW-44-2
